Substrate in this series: Nc1nc2c(c(=O)[nH]1)N1CN(c3ccc(C(=O)N[C@@H](CCC(=O)O)C(=O)O)cc3)CC1CN2
The series is described as follows: purified protein. Format: biochemical, Homo sapiens. The following applies: co-substrate dUMP; mixed diastereoisomers (6R,S).

B1: TS isolated from human ovarian CH1 cells (CH1 TS) (Homo sapiens) (protein)
chain: PVAGSELPRRPLPPAAQERDAEPRPPHGELQYLGQIQHILRCGVRKDDRTGTGTLSVFGMQARYSLRDEFPLLTTKRVFWKGVLEELLWFIKGSTNAKELSSKGVKIWDANGSRDFLDSLGFSTREEGDLGPVYGFQWRHFGAEYRDMESDYSGQGVDQLQRVIDTIKTNPDDRRIIMCAWNPRDLPLMALPPCHALCQFYVVNSELSCQLYQRSGDMGLGVPFNIASYALLTYMIAHITGLKPGDFIHTLGDAHIYLNHIEPLKIQLQREPRPFPKLRILRKVEKIDDFKAEDFQIEGYNPHPTIKMEMAV
notes: native enzyme partially purified from CH1 ovarian tumour cells (parental line), no tag
For B1, the Km stood at 24 ± 0.8 µM.

As usually defined, the Km is the concentration of substrate that gives half-maximal velocity.
